Source: FireProtDB (doi:10.1021/bi00358a035)
Values joined by “and” are separate entries in the source; they are usually repeats but may differ in a detail not shown here. Identical values can stand only once.

Details: Escherichia coli (strain K12); pH 7.8; 25 °C; Urea; CD; Potassium phosphate 10 mM; transition: 3; reversible: yes (>90%); whole UniProt chain shown

B1: Tryptophan synthase alpha chain wild type, P0A877 (protein)
chain: MERYESLFAQLKERKEGAFVPFVTLGDPGIEQSLKIIDTLIEAGADALELGIPFSDPLADGPTIQNATLRAFAAGVTPAQCFEMLALIRQKHPTIPIGLLMYANLVFNKGIDEFYAQCEKVGVDSVLVADVPVEESAPFRQAALRHNVAPIFICPPNADDDLLRQIASYGRGYTYLLSRAGVTGAENRAALPLNHLVAKLKEYNAAPPLQGFGISAPDQVKAAIDAGAAGAISGSAIVKIIEQHINEPEKMLAALKVFVQPMKAATRS
With B1 the denaturant m value was 2.2 kcal/mol/M and 1.2 kcal/mol/M, the “denaturant midpoint (higher = more stable)” value was 2.62 M and 4.18 M and the unfolding free energy was 23.8 kJ/mol and 20.9 kJ/mol.
